According to paper PMC10232555:

Target: Vim93-302-Eb1 (vimentin residues 93 to 302 followed by the Eb1 capping motif) (UniProt P08670)
Assay: SEC-MALS; data not shown; HS conditions

How did the stoichiometry N turn out when “Vim93-302-Eb1 (vimentin residues 93 to 302 followed by the Eb1 capping motif) (from UniProt P08670 93-302) (domain or fragment)” was run?
The stoichiometry N was 4.
